# Measurements taken from patent publication US7005504 (Genentech, dated 2006).
# Like-named read-outs stand apart in the source and are kept apart here.
# T1: rabbit IL-8 (rabbit, UniProt P19874 23-101, limits assumed)
# T1 sequence (looked up): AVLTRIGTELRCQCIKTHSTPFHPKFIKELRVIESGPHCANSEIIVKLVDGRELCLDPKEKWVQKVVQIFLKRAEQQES
# T2: recombinant human IL-8, (ser-IL-8)72 (human, UniProt P10145 28-99, In some assays the protein was iodinated (125I on tyrosine) or coated on a plate. The letters are unchanged.)
# T2 sequence: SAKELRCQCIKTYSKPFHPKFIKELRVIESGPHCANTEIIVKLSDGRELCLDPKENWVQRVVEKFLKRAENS
# T3: rhesus IL-8 (rhesus, UniProt P67813 23-101, limits assumed)
# T3 sequence (looked up): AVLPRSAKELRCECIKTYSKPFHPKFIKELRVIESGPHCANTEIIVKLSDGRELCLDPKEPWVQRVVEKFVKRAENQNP
# How the values were obtained:
# [1] = target: T1, rabbit IL-8; experiment: cell-based or functional assay
# [2] = target: human monomeric IL-8 (human); experiment: cell-based or functional assay
# [3] = target: T2, recombinant human IL-8, (ser-IL-8)72; experiment: cell-based or functional assay
# [4] = target: T2, recombinant human IL-8, (ser-IL-8)72; experiment: inhibition of 125I-IL-8 binding to IL-8 receptors on human neutrophils; the legend column has no head, the text calls the values of this figure IC50's
# [5] = target: T2, recombinant human IL-8, (ser-IL-8)72; experiment: cell-based or functional assay; remark: listed apart in the source
# [6] = target: T1, rabbit IL-8; experiment: cell-based or functional assay; remark: listed apart in the source
# [7] = target: T2, recombinant human IL-8, (ser-IL-8)72; experiment: inhibition of 125I-IL-8 binding to the IL-8 receptors on human neutrophils (Bound/Total against cold ligand in nM)
# [8] = target: T2, recombinant human IL-8, (ser-IL-8)72; experiment: 125I-IL-8 neutrophil competition; reference not named in the sentence (chimeric F(ab) by Table 4)
# [9] = target: T2, recombinant human IL-8, (ser-IL-8)72; experiment: 125I-IL-8 neutrophil competition, against F(ab)-1
# [10] = target: T3, rhesus IL-8; experiment: cell-based or functional assay
# [11] = target: T2, recombinant human IL-8, (ser-IL-8)72; experiment: inhibition of 125I-IL-8 binding to the IL-8 receptors on human neutrophils (Bound/Total against cold ligand in nM); remark: listed apart in the source
binder,measurement,setting,value
6G4V11N35A F(ab')2 leucine zipper (other) light: DIQMTQSPSSLSASVGDRVTITCRSSQSLVHGIGATYLHWYQQKPGKAPKLLIYKVSNRFSGVPSRFSGSGSGTDFTLTISSLQPEDFATYYCSQSTHVPLTFGQGTKVEIKRTVAAPSVFIFPPSDEQLKSGTASVVCLLNNFYPREAKVQWKVDNALQSGNSQESVTEQDSKDSTYSLSSTLTLSKADYEKHKVYACEVTHQGLSSPVTKSFNRGEC heavy: not shown,"average IC50, neutrophil chemotaxis",[1],4 nM
same,"average IC50, neutrophil chemotaxis",[2],1 nM
same,"average IC50, neutrophil chemotaxis",[3],1.5 nM
"6G4V11N35A F(ab')2 modified with a single 40 kD branched PEG molecule (other, may carry PEG on a lysine or the N-terminus; site not defined, one 40 kD branched PEG-succinimide (PEG2-NHS-40 KDa) per F(ab')2, on a primary amine; also called single 40 kD branched PEG-modified F(ab')2; branched(1)40 KDa-(N)-(Fab')2) light: DIQMTQSPSSLSASVGDRVTITCRSSQSLVHGIGATYLHWYQQKPGKAPKLLIYKVSNRFSGVPSRFSGSGSGTDFTLTISSLQPEDFATYYCSQSTHVPLTFGQGTKVEIKRTVAAPSVFIFPPSDEQLKSGTASVVCLLNNFYPREAKVQWKVDNALQSGNSQESVTEQDSKDSTYSLSSTLTLSKADYEKHKVYACEVTHQGLSSPVTKSFNRGEC heavy: not shown",IC50,[4],0.38 nM
"6G4V11N35A F(ab')2 modified with a single 20 kD linear PEG molecule (other, may carry PEG on a lysine or the N-terminus; site not defined, one 20 kD linear PEG-succinimide (M-SPA-20000) per F(ab')2, on a primary amine; also called single 20 kD linear PEG-modified F(ab')2; linear(1)20 KDa-(N)-(Fab')2) light: DIQMTQSPSSLSASVGDRVTITCRSSQSLVHGIGATYLHWYQQKPGKAPKLLIYKVSNRFSGVPSRFSGSGSGTDFTLTISSLQPEDFATYYCSQSTHVPLTFGQGTKVEIKRTVAAPSVFIFPPSDEQLKSGTASVVCLLNNFYPREAKVQWKVDNALQSGNSQESVTEQDSKDSTYSLSSTLTLSKADYEKHKVYACEVTHQGLSSPVTKSFNRGEC heavy: not shown",IC50,[4],0.296 nM
"chimeric 6G4.2.5 Fab (Fab, V domains shown) VH: EIQLQQSGPELMKPGASVKISCKASGYSFSSHYMHWVKQSHGKSLEWIGYIDPSNGETTYNQKFKGKATLTVDTSSSTANVHLSSLTSDDSAVYFCARGDYRYNGDWFFDVWGAGTTVTVSS VL: DIVMTQTPLSLPVSLGDQASISCRSSQSLVHGIGNTYLHWYLQKPGQSPKLLIYKVSNRFSGVPDRFSGSGSGTDFTLRISRVEAEDLGLYFCSQSTHVPLTFGAGTKLELKR",IC50 (4 parameter fit) of the inhibition of human IL-8 (100 nM) stimulated elastase release from human neutrophils,[5],0.635 molar ratio Fab:IL-8 (x axis; 100 nM IL-8)
same,IC50 (4 parameter fit) of the inhibition of rabbit IL-8 (100 nM) stimulated elastase release from human neutrophils (absorbance 405 nM),[6],1.04 molar ratio Fab:rIL-8 (x axis; 100 nM rIL-8)
"humanized 6G425 F(ab)-1 (Fab, V domains shown, Fab with human kappa subgroup I light chain and human IgG1 subgroup III heavy chain of phagemid pEMX1; unaltered CDR swap; also called version 1; V1) VH: EVQLVESGGGLVQPGGSLRLSCAASGYSFSSHYMHWVRQAPGKGLEWVGYIDPSNGETTYNQKFKGRFTISRDNSKNTLYLQMNSLRAEDTAVYYCARGDYRYNGDWFFDVWGQGTLVTVSS VL: DIQMTQSPSSLSASVGDRVTITCRSSQSLVHGIGNTYLHWYQQKPGKAPKLLIYKVSNRFSGVPSRFSGSGSGTDFTLTISSLQPEDFATYYCSQSTHVPLTFGQGTKVEIKR",IC50 (read off the curve),[7],~20 nM
same,fold reduction in binding affinity,[8],5.5 fold
"6G4V11N35A Fab' modified with 40 kD linear PEG-maleimide (Fab, V domains shown, 40 kD linear methoxy-PEG-maleimide on the free cysteine in the hinge region) VH: EVQLVQSGGGLVQPGGSLRLSCAASGYSFSSHYMHWVRQAPGKGLEWVGYIDPSNGETTYNQKFKGRFTLSRDNSKNTAYLQMNSLRAEDTAVYYCARGDYRYNGDWFFDVWGQGTLVTVSS VL: DIQMTQSPSSLSASVGDRVTITCRSSQSLVHGIGATYLHWYQQKPGKAPKLLIYKVSNRFSGVPSRFSGSGSGTDFTLTISSLQPEDFATYYCSQSTHVPLTFGQGTKVEIKR","IC50, PMN chemotaxis",[3],3.7 nM
"humanized 6G425 F(ab)-2 (Fab, V domains shown, template F(ab)-1; also called version 2) VH: EVQLVESGGGLVQPGGSLRLSCAASGYSFSSHYMHWVRQAPGKGLEWVGYIDPSNGETTYNQKFKGRATISRDNSKNTLYLQMNSLRAEDTAVYYCARGDYRYNGDWFFDVWGQGTLVTVSS VL: DIQMTQSPSSLSASVGDRVTITCRSSQSLVHGIGNTYLHWYQQKPGKAPKLLIYKVSNRFSGVPSRFSGSGSGTDFTLTISSLQPEDFATYYCSQSTHVPLTFGQGTKVEIKR",fold decrease in IL-8 binding,[9],< 2 fold
"full length 6G4V11N35A IgG1 (antibody, V domains shown, not shown: a dimerising Fc or GST) VH: EVQLVQSGGGLVQPGGSLRLSCAASGYSFSSHYMHWVRQAPGKGLEWVGYIDPSNGETTYNQKFKGRFTLSRDNSKNTAYLQMNSLRAEDTAVYYCARGDYRYNGDWFFDVWGQGTLVTVSS VL: DIQMTQSPSSLSASVGDRVTITCRSSQSLVHGIGATYLHWYQQKPGKAPKLLIYKVSNRFSGVPSRFSGSGSGTDFTLTISSLQPEDFATYYCSQSTHVPLTFGQGTKVEIKR","IC50, neutrophil chemotaxis",[1],4 nM
same,"IC50, neutrophil chemotaxis",[3],4 nM
"humanized 6G425 F(ab)-9 (humanized 6G4V11 Fab) (Fab, V domains shown) VH: EVQLVQSGGGLVQPGGSLRLSCAASGYSFSSHYMHWVRQAPGKGLEWVGYIDPSNGETTYNQKFKGRFTLSRDNSKNTAYLQMNSLRAEDTAVYYCARGDYRYNGDWFFDVWGQGTLVTVSS VL: DIQMTQSPSSLSASVGDRVTITCRSSQSLVHGIGNTYLHWYQQKPGKAPKLLIYKVSNRFSGVPSRFSGSGSGTDFTLTISSLQPEDFATYYCSQSTHVPLTFGQGTKVEIKR","IC50, neutrophil chemotaxis",[2],~15 nM
same,"IC50, neutrophil chemotaxis",[10],~22 nM
"6G4V11N35E Fab (Fab, V domains shown) VH: EVQLVQSGGGLVQPGGSLRLSCAASGYSFSSHYMHWVRQAPGKGLEWVGYIDPSNGETTYNQKFKGRFTLSRDNSKNTAYLQMNSLRAEDTAVYYCARGDYRYNGDWFFDVWGQGTLVTVSS VL: DIQMTQSPSSLSASVGDRVTITCRSSQSLVHGIGETYLHWYQQKPGKAPKLLIYKVSNRFSGVPSRFSGSGSGTDFTLTISSLQPEDFATYYCSQSTHVPLTFGQGTKVEIKR","IC50, neutrophil chemotaxis",[3],~1.2 nM
"full length 6G4V11N35E IgG1 (antibody, V domains shown, not shown: a dimerising Fc or GST) VH: EVQLVQSGGGLVQPGGSLRLSCAASGYSFSSHYMHWVRQAPGKGLEWVGYIDPSNGETTYNQKFKGRFTLSRDNSKNTAYLQMNSLRAEDTAVYYCARGDYRYNGDWFFDVWGQGTLVTVSS VL: DIQMTQSPSSLSASVGDRVTITCRSSQSLVHGIGETYLHWYQQKPGKAPKLLIYKVSNRFSGVPSRFSGSGSGTDFTLTISSLQPEDFATYYCSQSTHVPLTFGQGTKVEIKR","IC50, neutrophil chemotaxis",[1],2 nM
same,"IC50, neutrophil chemotaxis",[3],6 nM
"humanized 6G425 F(ab)-8 (Fab, V domains shown) VH: EVQLVESGGGLVQPGGSLRLSCAASGYSFSSHYMHWVKQAPGKGLEWVGYIDPSNGETTYNQKFKGRFTLSRDNSKNTAYLQMNSLRAEDTAVYYCARGDYRYNGDWFFDVWGQGTLVTVSS VL: DIQMTQSPSSLSASVGDRVTITCRSSQSLVHGIGNTYLHWYQQKPGKAPKLLIYKVSNRFSGVPSRFSGSGSGTDFTLTISSLQPEDFATYYCSQSTHVPLTFGQGTKVEIKR","IC50, neutrophil chemotaxis",[3],12 nM
"humanized 6G425 F(ab)-3 (Fab, V domains shown, template F(ab)-1; also called version 3) VH: EVQLVESGGGLVQPGGSLRLSCAASGYSFSSHYMHWVRQAPGKGLEWVGYIDPSNGETTYNQKFKGRFTISVDNSKNTLYLQMNSLRAEDTAVYYCARGDYRYNGDWFFDVWGQGTLVTVSS VL: DIQMTQSPSSLSASVGDRVTITCRSSQSLVHGIGNTYLHWYQQKPGKAPKLLIYKVSNRFSGVPSRFSGSGSGTDFTLTISSLQPEDFATYYCSQSTHVPLTFGQGTKVEIKR",fold decrease in IL-8 binding,[9],< 2 fold
"6G4V11N35A Fab (Fab, V domains shown, also called 6G4.2.5V11N35A Fab; Fab control) VH: EVQLVQSGGGLVQPGGSLRLSCAASGYSFSSHYMHWVRQAPGKGLEWVGYIDPSNGETTYNQKFKGRFTLSRDNSKNTAYLQMNSLRAEDTAVYYCARGDYRYNGDWFFDVWGQGTLVTVSS VL: DIQMTQSPSSLSASVGDRVTITCRSSQSLVHGIGATYLHWYQQKPGKAPKLLIYKVSNRFSGVPSRFSGSGSGTDFTLTISSLQPEDFATYYCSQSTHVPLTFGQGTKVEIKR",IC50 (read off the curve),[11],~1 nM
same,"average IC50, neutrophil chemotaxis",[1],5 nM
same,"average IC50, neutrophil chemotaxis",[2],1 nM
same,"IC50, PMN chemotaxis",[3],0.8 nM
same,"average IC50, neutrophil chemotaxis",[3],2.7 nM
"chimeric 5.12.14 Fab (Fab, V domains shown) VH: EVQLVESGGGLVPPGGSLKLSCAASGFIFSSYGMSWVRQTPGKSLELVATINNNGDSTYYPDSVKGRFTISRDNAKNTLYLQMSSLKSEDTAMFYCARALISSATWFGYWGQGTLVTVSA VL: DIVMTQSQKFMSTSVGDRVSVTCKASQNVGTNVAWYQQKPGQSPKALIYSSSYRYSGVPDRFTGSGSGTDFTLTISHVQSEDLADYFCQQYNIYPLTFGPGTKLELRR",IC50 (4 parameter fit) of the inhibition of human IL-8 (100 nM) stimulated elastase release from human neutrophils,[5],0.643 molar ratio Fab:IL-8 (x axis; 100 nM IL-8)
